{
  "source": "patent US20160289685",
  "key": {"[1]": {"target": "Recombinant human STAT1α (OriGene Technologies, Inc.) (UniProt P42224)"}, "[2]": {"target": "T1, Recombinant human STAT1α (OriGene Technologies, Inc.), P42224", "T1 chain": "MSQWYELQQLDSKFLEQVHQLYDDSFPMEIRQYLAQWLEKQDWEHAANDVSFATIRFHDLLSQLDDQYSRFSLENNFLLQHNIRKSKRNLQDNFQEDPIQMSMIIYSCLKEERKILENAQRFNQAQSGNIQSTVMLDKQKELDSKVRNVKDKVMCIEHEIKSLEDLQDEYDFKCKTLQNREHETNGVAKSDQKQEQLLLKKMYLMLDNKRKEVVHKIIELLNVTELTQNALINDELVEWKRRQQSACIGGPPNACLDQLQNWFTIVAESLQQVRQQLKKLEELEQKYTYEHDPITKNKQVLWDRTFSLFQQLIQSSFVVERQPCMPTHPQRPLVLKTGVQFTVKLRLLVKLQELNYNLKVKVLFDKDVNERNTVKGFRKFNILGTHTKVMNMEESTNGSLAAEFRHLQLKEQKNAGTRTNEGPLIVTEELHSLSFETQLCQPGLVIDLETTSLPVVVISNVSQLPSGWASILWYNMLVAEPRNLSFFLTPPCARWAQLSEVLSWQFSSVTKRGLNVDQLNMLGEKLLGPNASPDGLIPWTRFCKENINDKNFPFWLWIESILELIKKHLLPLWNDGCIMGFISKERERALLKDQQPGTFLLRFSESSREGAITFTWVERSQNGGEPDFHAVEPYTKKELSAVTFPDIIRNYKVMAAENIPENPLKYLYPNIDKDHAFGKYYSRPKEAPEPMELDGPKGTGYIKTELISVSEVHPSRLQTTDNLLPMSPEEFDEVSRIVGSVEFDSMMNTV"}},
  "data": [
    {"molecule": "Recombinant human PARP9 (BPS Bioscience Inc.)", "values": [
      {"measurement": "ADP-ribosylation (protein ribosylation assay)", "setting": "[1]", "value": "PARP9 did not ADP-ribosylate STAT1α"}
    ]},
    {"molecule": "Recombinant human PARP14 (BPS Bioscience Inc.) (protein) KEYQELNELQKKLNINISLDHKRPLIKVLGISRDVMQARDEIEAMIKRVRLAKEQESRADCISEFIEWQYNDNNTSHCFNKMTNLKLEDARREKKKTVDVKINHRHYTVNLNTYTATDTKGHSLSVQRLTKSKVDIPAHWSDMKQQNFCVVELLPSDPEYNTVASKFNQTCSHFRIEKIERIQNPDLWNSYQAKKKTMDAKNGQTMNEKQLFHGTDAGSVPHVNRNGFNRSYAGKNAVAYGKGTYFAVNANYSANDTYSRPDANGRKHVYYVRVLTGIYTHGNHSLIVPPSKNPQNPTDLYDTVTDNVHHPSLFVAFYDYQAYPEYLITFRK", "values": [
      {"measurement": "ADP-ribosylation (protein ribosylation assay, Western blot with Streptavidin-HRP)", "setting": "[2]", "value": "Recombinant PARP14 protein induced ADP-ribosylation of PARP14 itself, PARP9, and STAT1α"},
      {"measurement": "mono-ADP-ribosylation sites by LC-MS/MS", "setting": "[2]", "value": "Glu657 and Glu705 of STAT1α were mono-ADP-ribosylated by PARP14"}
    ]}
  ]
}
